Assay results as given in patent US5837813.

How the values were obtained:
[1] = biological target: human fibronectin (human) (UniProt P02751); assay: solid-phase competition, 125I-14 kDa fragment on coated fibronectin
[2] = biological target: human fibronectin (human) (UniProt P02751); assay: solid-phase competition, 125I-fibronectin on coated fibronectin
[3] = biological target: human fibronectin (human) (UniProt P02751)

LISIQQYGHQEVTRFDFTTTSTSTPVTSNTV [polypeptide P3]
fold less potent than P1 [1]: 100 fold | IC50 [2]: 200 to 300 µM | ^125 I-fibronectin bound to IMR-90 cells after one hour [3]: 25%
